Substitutions are numbered along the chain they refer to.
T1: human GDF15 recombinant protein (ACRO, GD5-H5149) (human, UniProt Q99988 197-308)
T1 sequence (looked up): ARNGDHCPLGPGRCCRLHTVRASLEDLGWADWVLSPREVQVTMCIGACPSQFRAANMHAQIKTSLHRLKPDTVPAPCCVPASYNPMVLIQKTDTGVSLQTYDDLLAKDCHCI

T2: GDF15 protein (R&D, 8146-GD) (UniProt Q99988 197-308)
T2 construct: analyte of the SPR assay
T2 sequence (looked up): T1 sequence (looked up)

B1: G2-H1-hz2-hIgG1(LALAGA, -K) (antibody, V domains shown)
VH: QVQLQESGPGLVKPSETLSLTCTFSGFSLSTYGIGVGWIRQPPGKGLEWIAHIWWNNNKYFNTALKSRLTISKDTSKNQVSLKLSSVTAADTAVYYCARMGYDIMDYWGQGTLVTVSS
VL: DIVMTQSPSSLSTSVGDRVTITCKASQDVNTAVAWYQQKPGKSPKFLIYSSSYRYTGVPDRFSGSGSGTDFTFTISSVQPEDFAVYYCQQHYSTPWTFGGGTKVEIKR
notes: humanized from G2-CH1
B2: G2-H1-hz8-hIgG1(LALAGA, -K) (antibody, V domains shown)
VH: B1 VH with Q3T, T23S, I50L, V94T, L113S
VL: B1 VL with S9A, S10T, V15P, D17E, T22S, K42Q, K45R, P80S
notes: humanized from G2-CH1
B3: G2-H1-hz13-hIgG1(LALAGA, -K) (antibody, V domains shown)
VH: QVTLLESGGGLVQPGGSLRLSCSFSGFSLSTYGIGVGWIRQAPGKGLEWLAHIWWNNNKYFNTALKSRLTISKDTSKNTVYLQMNSVRAEDTAVYYCARMGYDIMDYWGQGTTVTVSS
VL: B1 VL with V3Q, S43A, V78L, G100Q
notes: humanized from G2-CH1
B4: G2-H1-hz4-hIgG1(LALAGA, -K) (antibody, V domains shown)
VH: B1 VH
VL: B1 VL with S9A, S10T, V15P, D17E, T22S, K42Q, K45R, P80S
notes: humanized from G2-CH1
B5: G2-H1-hz6-hIgG1(LALAGA, -K) (antibody, V domains shown)
VH: B1 VH with Q3T, T23S, I50L, V94T, L113S
VL: B1 VL
notes: humanized from G2-CH1
B6: G2-H1-hz1-hIgG1(LALAGA, -K) (antibody, V domains shown)
VH: B1 VH
VL: B1 VL with V3Q, S43A, V78L, G100Q
notes: humanized from G2-CH1
B7: G2-H1-hz14-hIgG1(LALAGA, -K) (antibody, V domains shown)
VH: B3 VH
VL: B1 VL
notes: humanized from G2-CH1
B8: G2-H5-H2.2L2-hIgG1(LALAGA,-K) (antibody, V domains shown)
VH: EVQLVQSGAEVKKPGASVKVSCKASGYTFTDYNLNWVRQATGQGLEWMGDLNPYNQGIIYNQKFKGRVTLTVDKSISTAYMELSSLRSEDTAVYYCAREGRGGAWFDSWGQGTLVTVSS
VL: DIQMTQSPSSLSASVGDRVTITCKASEDIYHRLAWYQQKPGKAPKLLIYGATSLETGVPSRFSGSGSGTDYTFTISSLQPEDIATYYCQQYWSPPFTFGGGTKVEIKR
notes: humanized from G2-CH5-HP2
B9: G2-H5-H1.2L1-hIgG1(LALAGA,-K) (antibody, V domains shown)
VH: B8 VH with L70M, K74T
VL: B8 VL with Y71F
notes: humanized from G2-CH5-HP2
B10: G2-H5-H3.2L4-hIgG1(LALAGA,-K) (antibody, V domains shown)
VH: B8 VH with M48I, V68A
VL: B8 VL with Y49S, V58I
notes: humanized from G2-CH5-HP2
B11: G2-H5-H1.2L2-hIgG1(LALAGA,-K) (antibody, V domains shown)
VH: B8 VH with L70M, K74T
VL: B8 VL
notes: humanized from G2-CH5-HP2
B12: G2-H5-H1.2L3-hIgG1(LALAGA,-K) (antibody, V domains shown)
VH: B8 VH with L70M, K74T
VL: B8 VL with Y49S
notes: humanized from G2-CH5-HP2
B13: G2-H5-H1.2L4-hIgG1(LALAGA,-K) (antibody, V domains shown)
VH: B8 VH with L70M, K74T
VL: B8 VL with Y49S, V58I
notes: humanized from G2-CH5-HP2
B14: G2-H5-H4.2L4-hIgG1(LALAGA,-K) (antibody, V domains shown)
VH: B8 VH with F29L, M48I, V68A, D73N
VL: B8 VL with Y49S, V58I
notes: humanized from G2-CH5-HP2
B15: G2-H5-H2.2L4-hIgG1(LALAGA,-K) (antibody, V domains shown)
VH: B8 VH
VL: B8 VL with Y49S, V58I
notes: humanized from G2-CH5-HP2
B16: G2-H5-H3.2L2-hIgG1(LALAGA,-K) (antibody, V domains shown)
VH: B8 VH with M48I, V68A
VL: B8 VL
notes: humanized from G2-CH5-HP2
B17: G2-H5-H3.2L1-hIgG1(LALAGA,-K) (antibody, V domains shown)
VH: B8 VH with M48I, V68A
VL: B8 VL with Y71F
notes: humanized from G2-CH5-HP2
B18: G2-H5-H4.2L2-hIgG1(LALAGA,-K) (antibody, V domains shown)
VH: B8 VH with F29L, M48I, V68A, D73N
VL: B8 VL
notes: humanized from G2-CH5-HP2
B19: G2-H5-H3.2L3-hIgG1(LALAGA,-K) (antibody, V domains shown)
VH: B8 VH with M48I, V68A
VL: B8 VL with Y49S
notes: humanized from G2-CH5-HP2
B20: G2-H5-H2.2L3-hIgG1(LALAGA,-K) (antibody, V domains shown)
VH: B8 VH
VL: B8 VL with Y49S
notes: humanized from G2-CH5-HP2
B21: G2-H5-H4.2L1-hIgG1(LALAGA,-K) (antibody, V domains shown)
VH: B8 VH with F29L, M48I, V68A, D73N
VL: B8 VL with Y71F
notes: humanized from G2-CH5-HP2
B22: G2-H5-H2.2L1-hIgG1(LALAGA, -K) (antibody, V domains shown)
VH: B8 VH
VL: B8 VL with Y71F
notes: humanized from G2-CH5-HP2
B23: G2-H5-H4.2L3-hIgG1(LALAGA,-K) (antibody, V domains shown)
VH: B8 VH with F29L, M48I, V68A, D73N
VL: B8 VL with Y49S
notes: humanized from G2-CH5-HP2
B24: G2-H1-hz15-hIgG1(LALAGA, -K) (antibody, V domains shown)
VH: B3 VH
VL: DIVMTQSPATLSTSPGERATLSCKASQDVNTAVAWYQQKPGQAPRFLIYSSSYRYTGVPARFSGSGSGTEFTFTISSLQSEDFAVYYCQQHYSTPWTFGGGTKVEIKR
notes: humanized from G2-CH1
B25: G2-H8-H1L1-hIgG1(LALAGA,-K)(gsm) (antibody, V domains shown)
VH: QITLKESGPTLVKPTQTLTLTCTFSGFSLSTYGIGVGWIRQPPGKALEWLAHIWWNDNKYYNTALKSRLTITKDTSKNQVVLTMTNMDPVDTATYYCARLAYDYVDSWGQGTLVTVSS
VL: DIVMTQTPLSLSVTPGQPASISCKSSKSLLHSEGITYLYWYLQKPGQSPQLLIYQMSNLVSGVPDRFSGSGSGTDFTLKISRVEAEDVGVYYCAQNLELPPTFGQGTKLEIKR
notes: humanized from G2-CH8-LP3; also called G2-H8-H1L1-hIgG1(gsm); G2-H8-H1L1-hIgG1 (gsm)(LALAGA,-K)
B26: G2-H8-H2L2-hIgG1(LALAGA,-K) (antibody, V domains shown)
VH: B25 VH with I2V, T10A, A46G, T72S, L113T, V114L
VL: B25 VL with K24R, G69S
notes: humanized from G2-CH8-LP3

What follows are binders tested against T1, human GDF15 recombinant protein (ACRO, …) (assay: cell-based or functional assay).

Binder	IC50, reporter gene cell strain (GFRAL/RET)
B1	80 pM
B2	62 pM
B3	62 pM
B4	71 pM
B5	73 pM
B6	63 pM
B7	85 pM
B8	49 pM
B9	36 pM
B10	39 pM
B11	46 pM
B12	69 pM
B13	53 pM
B14	81 pM
B15	48 pM
B16	41 pM
B17	68 pM
B18	59 pM
B19	64 pM
B20	48 pM
B21	87 pM
B22	55 pM
B23	49 pM
B24	77 pM
B25	69 pM
B26	53 pM

These binders were tested against T2, GDF15 protein (R&D, 8146-GD) (assay: SPR Biacore T200, antibody captured by anti-hFc on CM5, GDF15 as analyte, 1:1 model).

Binder	Kd	koff	kon
B1	13.4 pM	0.000192 s⁻¹	1.43e+07 M⁻¹ s⁻¹
B2	17.8 pM	0.000273 s⁻¹	1.53e+07 M⁻¹ s⁻¹
B3	21.1 pM	0.000297 s⁻¹	1.41e+07 M⁻¹ s⁻¹
B4	9.93 pM	0.000183 s⁻¹	1.84e+07 M⁻¹ s⁻¹
B5	15.1 pM	0.000221 s⁻¹	1.46e+07 M⁻¹ s⁻¹
B6	10.5 pM	0.000146 s⁻¹	1.39e+07 M⁻¹ s⁻¹
B7	10.7 pM	0.00015 s⁻¹	1.4e+07 M⁻¹ s⁻¹
B8	17.8 pM	0.000145 s⁻¹	8.11e+06 M⁻¹ s⁻¹
B9	24.4 pM	0.000169 s⁻¹	6.94e+06 M⁻¹ s⁻¹
B10	22.1 pM	0.000175 s⁻¹	7.9e+06 M⁻¹ s⁻¹
B11	14.5 pM	0.000134 s⁻¹	9.19e+06 M⁻¹ s⁻¹
B12	19.7 pM	0.000185 s⁻¹	9.37e+06 M⁻¹ s⁻¹
B13	24.1 pM	0.000201 s⁻¹	8.36e+06 M⁻¹ s⁻¹
B14	34.9 pM	0.00026 s⁻¹	7.44e+06 M⁻¹ s⁻¹
B15	21 pM	0.000231 s⁻¹	1.1e+07 M⁻¹ s⁻¹
B16	32.7 pM	0.000265 s⁻¹	8.1e+06 M⁻¹ s⁻¹
B17	24.5 pM	0.000173 s⁻¹	7.03e+06 M⁻¹ s⁻¹
B18	27.3 pM	0.000239 s⁻¹	8.75e+06 M⁻¹ s⁻¹
B19	33.9 pM	0.000359 s⁻¹	1.06e+07 M⁻¹ s⁻¹
B20	33.6 pM	0.000284 s⁻¹	8.46e+06 M⁻¹ s⁻¹
B21	44.2 pM	0.000278 s⁻¹	6.28e+06 M⁻¹ s⁻¹
B22	22.9 pM	0.000189 s⁻¹	8.26e+06 M⁻¹ s⁻¹
B23	25.1 pM	0.000193 s⁻¹	7.68e+06 M⁻¹ s⁻¹
B24	9.23 pM	0.000115 s⁻¹	1.25e+07 M⁻¹ s⁻¹
B25	22 pM	0.00017 s⁻¹	7.75e+06 M⁻¹ s⁻¹
B26	14.3 pM	0.000127 s⁻¹	8.9e+06 M⁻¹ s⁻¹

Reference: patent EP4810515A1 (Shanghai Haiju Biological Technology Co., Ltd., dated 2026)
